Source: patent US8110387B2, “Polypeptide having NADH dependent HMF reductase activity” (C5 Ligno Technologies Lund AB, priority 2007, dated 2012)

Assays:
Assay type in all cases: biochemical, Saccharomyces cerevisiae
[1] = In vitro NADH-dependent furan reductase activity of ADH1 mutants in cell extracts, furfural as substrate; parameters: key: —: no detectable activity; detectable activity (ranging from moderate (+) to very high (+++)); detectable activity (ranging from moderate (+) to very high (+++)); detectable activity (ranging from moderate (+) to very high (+++)); settings: 10 mM furfural, 200 μM NADH, cell extract of CEN.PK 113-5D transformant, pH 6.7, 30° C.
Experimental: (§1) Plasmid carrying individual or combined mutations within the ADH1 gene were introduced in strain CEN.PK 113-5D by transformation according to the lithium acetate method (Gietz et al., 1992, Improved method for high efficiency transformation of intact yeast cells. Nucleic Acids Research 20:1425). Selection was performed on SD plates without uracil. The resulting strains were grown aerobically at 30° C. in 25 mL SD medium without uracil (in 250 mL baffled flask). Cell extracts were prepared by harvesting the cells at OD620 7.5-8.5, re-suspending the cells in Y-PER solution (Pierce, Rockford, Ill., USA), 1 mL/0.6gr cells, shaking at room temperature for 50 min. The supernatant was collected after centrifugation for 20 min at 15000 g. In vitro NADH-dependent furan reductase activity was measured by following the oxidation of NADH at 340 nm in a Hitachi U-2000 spectrophotometer (Hitachi, Tokyo, Japan). The assay consisted of 10 mM furaldehyde (HMF or furfural), 200 μM NADH and cell extract in 100 mM phosphate buffer (pH 6.7) at 30° C.

[2] = In vitro NADH-dependent furan reductase activity of ADH1 mutants in cell extracts, HMF as substrate; parameters: key: —: no detectable activity; detectable activity (ranging from moderate (+) to very high (+++)); detectable activity (ranging from moderate (+) to very high (+++)); detectable activity (ranging from moderate (+) to very high (+++)); settings: 10 mM HMF, 200 μM NADH, cell extract of CEN.PK 113-5D transformant, pH 6.7, 30° C.
Experimental: as §1

[3] = Enzyme kinetics of Adh1 variants, NADH-dependent reduction of furfural
Experimental: (§2) Cells were grown aerobically at 30° C. in 25 mL SD medium without uracil (in 250 mL baffled flask). Cell extracts were prepared by harvesting the cells at OD620 7.5-8.5, re-suspending the cells in Y-PER solution (Pierce, Rockford, Ill., USA), 1 mL/0.6 gr cells, shaking at room temperature for 50 min. The supernatant was collected after centrifugation for 20 min at 15000 g.
(§3) In vitro NADH-dependent furan reductase activity was measured by following the oxidation of NADH at 340 nm in a Hitachi U-2000 spectrophotometer (Hitachi, Tokyo, Japan). NADH-dependent aldehyde reduction was determined (Wahlbom and Hahn-Hägerdal, 2002) with 200 μM NADH. Reduction kinetics were determined for acetaldehyde (range […]-100 mM), furfural (100 μM-20 mM) and HMF (500 μM-20 mM). For native Adh1 furfural was used up to 40 mM.
(§4) Modeling was performed according to the Michaelis-Menten equation with the addition of a substrate inhibition constant: V=(Vmax·[S])/(Km+[S]+[S]2/KI), V—velocity, Vmax—maximal velocity, Km—affinity constant, Ki—substrate inhibition constant, and [S]—substrate concentration. Parameter value estimation was according to the least square method, using the solver function in Microsoft® Excel 2002. HMF activity parameters of strain BY474-ADH1-S117L were estimated without the substrate inhibition constant due to a clear discrepancy of the substrate inhibition model with actual data.

[4] = Enzyme kinetics of Adh1 variants, NADH-dependent reduction of acetaldehyde
Experimental: as §2, §3, §4

[5] = 200 μM NADH, cell extract of BY4741

B1: S110P: native Adh1 with the single substitution S110P (protein, listed as Saccharomyces cerevisiae)
chain: MSIPETQKGVIFYESHGKLEYKDIPVPKPKANELLINVKYSGVCHTDLHAWHGDWPLPTKLPLAGGHEGAGVVVGMGENVKGWKIGDYAGIKWLNGSCMACEYCELGNEPNCPHADSSGYTHDGSFQQYATADAVQAAHIPQGTDLAEVAPVLCAGITVYKALKSANLMAGHWVAISGAAGGLGSLAVQYAKAMGYRVLGIDGGEGKEELFRSIGGEVFIDFTKEKDIVGAVLKATDGGAHGVINVSVSEAAIEASTRYVRANGTTVLVGMPAGAKCCSDVFNQVVKSISIVGSYVGNRADTREALDFFARGLVKSPIKVVGLSTLPEIYEKMEKGQIVGRYVVDTSK
- NADH-dependent Activity Furfural Reductase [1]: ++

B2: Y295C: native Adh1 with the single substitution Y295C (protein, listed as Saccharomyces cerevisiae)
chain: MSIPETQKGVIFYESHGKLEYKDIPVPKPKANELLINVKYSGVCHTDLHAWHGDWPLPTKLPLAGGHEGAGVVVGMGENVKGWKIGDYAGIKWLNGSCMACEYCELGNESNCPHADSSGYTHDGSFQQYATADAVQAAHIPQGTDLAEVAPVLCAGITVYKALKSANLMAGHWVAISGAAGGLGSLAVQYAKAMGYRVLGIDGGEGKEELFRSIGGEVFIDFTKEKDIVGAVLKATDGGAHGVINVSVSEAAIEASTRYVRANGTTVLVGMPAGAKCCSDVFNQVVKSISIVGSCVGNRADTREALDFFARGLVKSPIKVVGLSTLPEIYEKMEKGQIVGRYVVDTSK
- NADH-dependent Activity HMF reductase [2]: +
- NADH-dependent Activity Furfural Reductase [1]: +++

B3: V59T-Q148E-I152V-L117S-Y295C: mutated Adh1 from TMB3000 with reverse mutation at position 110 (protein, UniProt P00330 2-348, looked up, variant V59T Q148E I152V L117S Y295C)
Alcohol dehydrogenase 1: SIPETQKGVIFYESHGKLEYKDIPVPKPKANELLINVKYSGVCHTDLHAWHGDWPLPTKLPLVGGHEGAGVVVGMGENVKGWKIGDYAGIKWLNGSCMACEYCELGNESNCPHADSSGYTHDGSFQQYATADAVQAAHIPQGTDLAEVAPVLCAGITVYKALKSANLMAGHWVAISGAAGGLGSLAVQYAKAMGYRVLGIDGGEGKEELFRSIGGEVFIDFTKEKDIVGAVLKATDGGAHGVINVSVSEAAIEASTRYVRANGTTVLVGMPAGAKCCSDVFNQVVKSISIVGSCVGNRADTREALDFFARGLVKSPIKVVGLSTLPEIYEKMEKGQIVGRYVVDTSK
- NADH-dependent Activity HMF reductase [2]: +
- NADH-dependent Activity Furfural Reductase [1]: +

B4: V59T-Q148E-I152V-S110P-L117S: mutated Adh1 from TMB3000 with reverse mutation at position 295 (protein, UniProt P00330 2-348, looked up, variant V59T Q148E I152V S110P L117S)
Alcohol dehydrogenase 1: SIPETQKGVIFYESHGKLEYKDIPVPKPKANELLINVKYSGVCHTDLHAWHGDWPLPTKLPLVGGHEGAGVVVGMGENVKGWKIGDYAGIKWLNGSCMACEYCELGNEPNCPHADSSGYTHDGSFQQYATADAVQAAHIPQGTDLAEVAPVLCAGITVYKALKSANLMAGHWVAISGAAGGLGSLAVQYAKAMGYRVLGIDGGEGKEELFRSIGGEVFIDFTKEKDIVGAVLKATDGGAHGVINVSVSEAAIEASTRYVRANGTTVLVGMPAGAKCCSDVFNQVVKSISIVGSYVGNRADTREALDFFARGLVKSPIKVVGLSTLPEIYEKMEKGQIVGRYVVDTSK
- NADH-dependent Activity Furfural Reductase [1]: +

B5: BY4741-control: native S. cerevisiae Adh1 (V59, S110, L117, Q148, I152, Y295) overexpressed in ΔAdh1 strain BY4741 (protein, UniProt P00330 2-348, looked up)
Alcohol dehydrogenase 1: SIPETQKGVIFYESHGKLEYKDIPVPKPKANELLINVKYSGVCHTDLHAWHGDWPLPVKLPLVGGHEGAGVVVGMGENVKGWKIGDYAGIKWLNGSCMACEYCELGNESNCPHADLSGYTHDGSFQQYATADAVQAAHIPQGTDLAQVAPILCAGITVYKALKSANLMAGHWVAISGAAGGLGSLAVQYAKAMGYRVLGIDGGEGKEELFRSIGGEVFIDFTKEKDIVGAVLKATDGGAHGVINVSVSEAAIEASTRYVRANGTTVLVGMPAGAKCCSDVFNQVVKSISIVGSYVGNRADTREALDFFARGLVKSPIKVVGLSTLPEIYEKMEKGQIVGRYVVDTSK
- [S]Vmax - substrate concentration at observed Vmax [3]: 30 mM
- Ki (substrate inhibition constant) [3, 5]: 1363 mM
- obsVmax (observed Vmax) ([3]; substrate furfural): 4345 mU/mg
- Km ([3]; substrate furfural, 200 μM NADH, cell extract of BY4741): 18.8 mM
- Vmax ([3]; substrate furfural, 200 μM NADH, cell extract of BY4741, model with substrate inhibition): 6530 (mU)/mg
- [S]Vmax - substrate concentration at observed Vmax [4]: 1 mM
- Ki (substrate inhibition constant) [4, 5]: 12.5326 mM
- obsVmax (observed Vmax) ([4]; substrate acetaldehyde): 35300 mU/mg
- Km ([4]; substrate acetaldehyde, 200 μM NADH, cell extract of BY4741): 0.217 mM
- Vmax ([4]; substrate acetaldehyde, 200 μM NADH, cell extract of BY4741, model with substrate inhibition): 45070 (mU)/mg
